These results are taken from PMC10761746 (Scientific Reports, 2024).

For this assay, the target named is T1, His6-RpoA (purified) (UniProt P0A7Z7 1-329).
T1 construct: also called RNA polymerase alpha subunit
Description: pull-down. The conditions noted are these: both partners purified.

T1 sequence (P0A7Z7 whole entry): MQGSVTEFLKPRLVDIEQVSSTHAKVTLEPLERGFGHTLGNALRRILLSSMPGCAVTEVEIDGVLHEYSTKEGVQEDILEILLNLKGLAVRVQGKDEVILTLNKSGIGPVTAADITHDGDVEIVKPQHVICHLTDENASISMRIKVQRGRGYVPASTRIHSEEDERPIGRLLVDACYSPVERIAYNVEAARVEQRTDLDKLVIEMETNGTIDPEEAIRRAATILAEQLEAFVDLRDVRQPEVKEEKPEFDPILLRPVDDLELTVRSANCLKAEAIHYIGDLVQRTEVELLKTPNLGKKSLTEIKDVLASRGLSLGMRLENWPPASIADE

B1: MBP-InvF (InvF fused to the maltose-binding protein) (natural protein)
chain: MSFSESRHNENCLIQEGALLFCEQAVVAPVSGDLVFRPLKIEVLSKLLAFIDGAGLVDTTYAESDKWVLLSPEFRAIWQDRKRCEYWFLQQIITPSPAFNKVLALLRKSESYWLVGYLLAQSTSGNTMRMLGEDYGVSYTHFRRLCSRALGGKAKSELRNWRMAQSLLNSVEGHENITQLAVNHGYSSPSHFSSEIKELIGVSPRKLSNIIQLADK
notes: also called Transcriptional regulator InvF
Consider B1, for which the binding result is recorded as “binds”.
